This note sets out measurements from publication PMC3039130 (Structure (London, England : 1993), 2011).

The target in the test is T1, BirA-tagged, biotinylated mouse JAML ectodomain (Mus musculus, biotin on the BirA-tag (by BirA biotin protein ligase)).
T1 chain: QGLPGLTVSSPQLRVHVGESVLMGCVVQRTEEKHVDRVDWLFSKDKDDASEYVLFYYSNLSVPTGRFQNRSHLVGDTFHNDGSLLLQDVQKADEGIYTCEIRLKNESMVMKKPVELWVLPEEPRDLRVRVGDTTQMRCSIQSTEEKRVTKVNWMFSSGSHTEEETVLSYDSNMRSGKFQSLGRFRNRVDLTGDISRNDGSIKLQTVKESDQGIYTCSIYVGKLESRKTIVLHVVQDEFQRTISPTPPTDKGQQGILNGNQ
As to the kind of experiment: SPR. (Surface plasmon resonance follows binding to a sensor surface in real time, without labels.)

B1: HL4E10 Fab (fragment of the hamster anti-JAML IgG (λ) HL4E10) (Fab, V domains shown)
VH: QVQLKESGPGLLQPSQTLSLTCTVSGISLSDYGVHWVRQAPGKGLEWMGIIGHAGGTDYNSNLKSRVSISRDTSKSQVFLKLNSLQQEDTAMYFCARHFYTYFDVWGQGIQVTVSS
VL: SYTLTQPPLVSVALGQKATITCSGDKLSDVYVHWYQQKAGQAPVLVIYEDNRRPSGIPDHFSGSNSGNMATLTISKAQAGDEADYYCQSWDGTNSAWVFGSGTKVTVL
B1 yielded a Kd of roughly 8 nM and a koff of roughly 0.001 s⁻¹.

For orientation: Kd means the constant that tells how readily two partners part at equilibrium. A word on the koff: it is the rate constant with which the complex falls apart. A lower koff goes with a long-lived complex.
